Data: patent US20250032632A1 (published 2025)
Numbering of substitutions follows the chain as printed.

Key:
[1] = target: T1, human cMET-Fc fusion protein (extracellular domain of human cMET fused to human Fc) (human, UniProt P08581 25-932); assay: SPR with hMet-Fc
T1 construct: Mature cMET is cleaved into alpha and beta subunits; also called hMET-Fc; hMet-Fc

rat cMET-Fc = target: T2, rat cMET-Fc (rat, UniProt P97523 25-935); assay: SPR, rMET-Fc
T2 construct: Construct named only as rMET-Fc; also called rMET-Fc; not shown: Fc part
T2 sequence (P97523 25-935 limits assumed): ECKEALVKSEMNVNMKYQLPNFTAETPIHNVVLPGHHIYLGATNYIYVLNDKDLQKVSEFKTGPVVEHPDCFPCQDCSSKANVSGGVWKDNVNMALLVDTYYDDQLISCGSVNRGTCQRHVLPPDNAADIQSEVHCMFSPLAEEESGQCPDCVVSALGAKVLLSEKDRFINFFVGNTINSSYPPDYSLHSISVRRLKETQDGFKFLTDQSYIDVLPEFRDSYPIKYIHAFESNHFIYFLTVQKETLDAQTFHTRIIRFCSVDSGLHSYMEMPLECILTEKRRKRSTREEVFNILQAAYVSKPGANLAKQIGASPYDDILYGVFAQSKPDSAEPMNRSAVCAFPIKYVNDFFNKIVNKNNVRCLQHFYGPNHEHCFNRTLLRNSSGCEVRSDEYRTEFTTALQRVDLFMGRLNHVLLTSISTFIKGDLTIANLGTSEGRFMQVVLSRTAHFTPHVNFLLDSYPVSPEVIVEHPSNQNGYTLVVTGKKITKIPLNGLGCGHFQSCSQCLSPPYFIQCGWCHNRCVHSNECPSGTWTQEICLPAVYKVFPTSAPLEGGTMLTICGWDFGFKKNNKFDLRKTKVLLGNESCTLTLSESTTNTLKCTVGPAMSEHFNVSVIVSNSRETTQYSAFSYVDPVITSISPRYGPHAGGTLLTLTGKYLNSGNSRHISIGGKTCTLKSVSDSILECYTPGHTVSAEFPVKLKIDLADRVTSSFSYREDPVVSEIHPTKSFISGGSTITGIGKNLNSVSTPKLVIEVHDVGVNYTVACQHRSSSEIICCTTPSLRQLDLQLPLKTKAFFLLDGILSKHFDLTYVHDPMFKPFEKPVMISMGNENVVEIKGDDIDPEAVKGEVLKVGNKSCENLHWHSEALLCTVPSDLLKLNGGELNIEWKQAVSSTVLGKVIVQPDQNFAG

[2] = target: T3, human cMET (ELISA antigen) (human, UniProt P08581 25-932, limits assumed); assay: ELISA on human cMET, relative to parental P3D12
T3 construct: also called hMET
T3 sequence (P08581 25-932 limits assumed): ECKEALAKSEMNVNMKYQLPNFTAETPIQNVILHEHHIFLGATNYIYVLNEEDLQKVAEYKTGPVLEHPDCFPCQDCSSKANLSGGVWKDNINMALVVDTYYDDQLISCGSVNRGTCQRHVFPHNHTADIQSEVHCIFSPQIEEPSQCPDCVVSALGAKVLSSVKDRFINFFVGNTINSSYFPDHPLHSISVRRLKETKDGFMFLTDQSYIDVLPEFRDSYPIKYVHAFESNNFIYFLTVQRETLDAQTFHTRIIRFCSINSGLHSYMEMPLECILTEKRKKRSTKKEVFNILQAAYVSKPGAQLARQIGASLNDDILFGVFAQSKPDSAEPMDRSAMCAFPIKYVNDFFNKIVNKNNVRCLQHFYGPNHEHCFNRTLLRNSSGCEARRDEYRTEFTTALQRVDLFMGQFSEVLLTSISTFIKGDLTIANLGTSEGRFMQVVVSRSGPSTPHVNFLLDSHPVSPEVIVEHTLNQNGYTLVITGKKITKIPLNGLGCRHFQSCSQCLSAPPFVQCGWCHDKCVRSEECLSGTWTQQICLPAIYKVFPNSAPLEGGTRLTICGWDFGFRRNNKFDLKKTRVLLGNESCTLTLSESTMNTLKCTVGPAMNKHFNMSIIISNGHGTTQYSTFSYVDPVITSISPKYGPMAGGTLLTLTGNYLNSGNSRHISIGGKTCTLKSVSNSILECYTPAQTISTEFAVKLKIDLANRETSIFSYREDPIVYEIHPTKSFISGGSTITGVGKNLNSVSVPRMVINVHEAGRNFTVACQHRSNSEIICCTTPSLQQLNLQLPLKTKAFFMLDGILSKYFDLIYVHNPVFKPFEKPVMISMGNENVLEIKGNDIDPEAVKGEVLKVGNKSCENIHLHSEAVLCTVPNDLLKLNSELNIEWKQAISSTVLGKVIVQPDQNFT

rat cMET (ELISA antigen) = target: T4, rat cMET (ELISA antigen) (rat, UniProt P97523 25-935, limits assumed); assay: ELISA on rat cMET, relative to parental P3D12
T4 construct: also called rMET
T4 sequence (P97523 25-935 limits assumed): as the sequence (P97523 25-935 limits assumed) above

[3] = target: T1, human cMET-Fc fusion protein …; assay: SPR, hMET-Fc
[4] = target: T5, Recombinant Human c-Met-10X His (human, UniProt P08581 25-932); assay: ELISA, plate-bound human cMET (FIGS. 17A, 17B)
T5 construct: In-house reagent (Lot #140924TA); not shown: 10X His tag
T5 sequence (P08581 25-932 limits assumed): as the sequence (P08581 25-932 limits assumed) above
Text: Relative binding strength is indicated by luminescence (y-axis).

T1 sequence (P08581 25-932): as the sequence (P08581 25-932 limits assumed) above

B1: ABF46 (antibody, V domains shown)
VH: EVKLVESGGGLVQPGGSLRLSCATSGFTFTDYYMSWVRQPPGKALEWLGFIRNKANGYTTEYSASVKGRFTISRDNSQSILYLQMDTLRAEDSATYYCARDNWFAYWGQGTLVTVSA
VL: DILMTQSPSSLTVSAGEKVTMSCKSSQSLLASGNQNNYLAWHQQKPGRSPKMLIIWASTRVSGVPDRFIGSGSGTDFTLTINSVQAEDLAVYYCQQSYSAPLTFGAGTKLELK
Binder B1 has a Kd [1] of 0.7 nM.

B2: G2ckc (humanized P3D12, VH-cdr + VL-cdr) (antibody, V domains shown)
VH: QVQLVQSGAEVKKPGASVKVSCKASGYTFTSYWMHWVKQAPGQGLDWIGYIKPSTDNTEYNQKFKDKATLTADKSTSTAYMELSSLRSEDTAVYYCARSYGNYPLMDYWGQGTTVTVSS
VL: QIVLTQSPATLSLSPGERATLSCSASSSVTSNYLYWYQQKPGSSPRLLIYSTSNLASGVPARFSGSGSGTSYTLTISRLEPEDFASYFCHQWSSYPPTFGSGTKLEIKR
notes: Humanized and isotype switched version of P3D12
For B2, the Kd (rat cMET-Fc) was 31 nM, the “ELISA hMET vs parental” value [2] was 1 fold vs parental and the “ELISA rMET vs parental” value (rat cMET (ELISA antigen)) was 2 fold vs parental. For the same binder, the Kd [3] was 0.9 nM.

B3: G2aka (humanized P3D12, VH-abb/sdr + VL-abb/sdr) (antibody, V domains shown)
VH: B2 VH with I48M, N61A, K65Q, D66G, K67R, A68V
VL: B2 VL with S24R, S27Q, S71D
notes: as for B2
With B3 the Kd (rat cMET-Fc) was 26 nM, the “ELISA hMET vs parental” value [2] was 0.9 fold vs parental and the “ELISA rMET vs parental” value (rat cMET (ELISA antigen)) was 1.1 fold vs parental. It also gave a Kd [3] of 0.9 nM.

B4: G2akc (humanized P3D12, VH-abb/sdr + VL-cdr) (antibody, V domains shown)
VH: B2 VH with I48M, N61A, K65Q, D66G, K67R, A68V
VL: B2 VL
notes: as for B2
With B4 the Kd (rat cMET-Fc) was 38 nM, the “ELISA hMET vs parental” value [2] was 1.3 fold vs parental and the “ELISA rMET vs parental” value (rat cMET (ELISA antigen)) was 0.7 fold vs parental. The Kd [3] was 0.7 nM.

B5: G2akf (humanized P3D12, VH-abb/sdr + VL-fra) (antibody, V domains shown)
VH: B2 VH with I48M, N61A, K65Q, D66G, K67R, A68V
VL: B2 VL with T10I, R46K, R78S, P81A, F84A
notes: as for B2
With B5 the Kd (rat cMET-Fc) was 23 nM, the “ELISA hMET vs parental” value [2] was 1 fold vs parental and the “ELISA rMET vs parental” value (rat cMET (ELISA antigen)) was 0.5 fold vs parental. It also gave a Kd [3] of 0.6 nM.

B6: G2akv (humanized P3D12, VH-abb/sdr + VL-ven) (antibody, V domains shown)
VH: B2 VH with I48M, N61A, K65Q, D66G, K67R, A68V
VL: B2 VL with L11M, L13A, A19V, L48W, L79M, F84A
notes: as for B2
B6 was tested, and the “ELISA hMET vs parental” value [2] was 1.6 fold vs parental and the “ELISA rMET vs parental” value (rat cMET (ELISA antigen)) was 1.3 fold vs parental.

B7: G2cka (humanized P3D12, VH-cdr + VL-abb/sdr) (antibody, V domains shown)
VH: B2 VH
VL: B2 VL with S24R, S27Q, S71D
notes: as for B2
With B7 the Kd (rat cMET-Fc) was 29 nM, the “ELISA hMET vs parental” value [2] was 1.3 fold vs parental and the “ELISA rMET vs parental” value (rat cMET (ELISA antigen)) was 2.7 fold vs parental. The Kd [3] was 0.4 nM.

B8: G2ckv (humanized P3D12, VH-cdr + VL-ven) (antibody, V domains shown)
VH: B2 VH
VL: B2 VL with L11M, L13A, A19V, L48W, L79M, F84A
notes: as for B2
With B8 the “ELISA hMET vs parental” value [2] was 1.1 fold vs parental and the “ELISA rMET vs parental” value (rat cMET (ELISA antigen)) was 1 fold vs parental.

B9: G2fka (humanized P3D12, VH-fra + VL-abb/sdr) (antibody, V domains shown)
VH: B2 VH with V5Q, A40R, K67R, A68V, E82Q, S85N, R87I, T114S
VL: B2 VL with S24R, S27Q, S71D
notes: as for B2
B9 was tested, and the “ELISA hMET vs parental” value [2] was 1.8 fold vs parental and the “ELISA rMET vs parental” value (rat cMET (ELISA antigen)) was 3.8 fold vs parental.

B10: G2fkc (humanized P3D12, VH-fra + VL-cdr) (antibody, V domains shown)
VH: B2 VH with V5Q, A40R, K67R, A68V, E82Q, S85N, R87I, T114S
VL: B2 VL
notes: as for B2
In the case of B10, the “ELISA hMET vs parental” value [2] is reported as 1.7 fold vs parental and the “ELISA rMET vs parental” value (rat cMET (ELISA antigen)) is reported as 2.3 fold vs parental.

B11: G2vka (humanized P3D12, VH-ven + VL-abb/sdr) (antibody, V domains shown)
VH: B2 VH with K12A, V20M, E82Q
VL: B2 VL with S24R, S27Q, S71D
notes: as for B2
For B11, the “ELISA hMET vs parental” value [2] was 0.9 fold vs parental and the “ELISA rMET vs parental” value (rat cMET (ELISA antigen)) was 2.7 fold vs parental.

B12: G2vkc (humanized P3D12, VH-ven + VL-cdr) (antibody, V domains shown)
VH: B2 VH with K12A, V20M, E82Q
VL: B2 VL
notes: as for B2
For B12, the “ELISA hMET vs parental” value [2] was 1.1 fold vs parental and the “ELISA rMET vs parental” value (rat cMET (ELISA antigen)) was 1.9 fold vs parental.

B13: G2vkf (humanized P3D12, VH-ven + VL-fra) (antibody, V domains shown)
VH: B2 VH with K12A, V20M, E82Q
VL: B2 VL with T10I, R46K, R78S, P81A, F84A
notes: as for B2
In the case of B13, the Kd (rat cMET-Fc) is reported as 8 nM, the “ELISA hMET vs parental” value [2] is reported as 1.1 fold vs parental and the “ELISA rMET vs parental” value (rat cMET (ELISA antigen)) is reported as 1 fold vs parental. The Kd [3] was 0.3 nM.

B14: G2vkv (humanized P3D12, VH-ven + VL-ven) (antibody, V domains shown)
VH: B2 VH with K12A, V20M, E82Q
VL: B2 VL with L11M, L13A, A19V, L48W, L79M, F84A
notes: as for B2
In the case of B14, the “ELISA hMET vs parental” value [2] is reported as 1.6 fold vs parental and the “ELISA rMET vs parental” value (rat cMET (ELISA antigen)) is reported as 1.6 fold vs parental.

B15: G2fkf (humanized P3D12, VH-fra + VL-fra) (antibody, V domains shown)
VH: B2 VH with V5Q, A40R, K67R, A68V, E82Q, S85N, R87I, T114S
VL: B2 VL with T10I, R46K, R78S, P81A, F84A
notes: as for B2
For B15, the Kd (rat cMET-Fc) was 30 nM, the “ELISA hMET vs parental” value [2] was 1.7 fold vs parental and the “ELISA rMET vs parental” value (rat cMET (ELISA antigen)) was 1.4 fold vs parental. It also gave a Kd [3] of 0.4 nM.

B16: G2fkv (humanized P3D12, VH-fra + VL-ven) (antibody, V domains shown)
VH: B2 VH with V5Q, A40R, K67R, A68V, E82Q, S85N, R87I, T114S
VL: B2 VL with L11M, L13A, A19V, L48W, L79M, F84A
notes: as for B2
For B16, the “ELISA hMET vs parental” value [2] was 1.7 fold vs parental and the “ELISA rMET vs parental” value (rat cMET (ELISA antigen)) was 1.2 fold vs parental.

B17: Chimeric P3D12 (antibody, V domains shown)
VH: QVQLQQSGAELAKPGASVKMSCRASGYTFTSYWMHWVKQRPGQGLDWIGYIKPSTDNTEYNQKFKDKATLTADKSSSTAYMQLSSLTSEDSAVYYCARSYGNYPLMDYWGQGTSVTVSS
VL: QIVLTQSPAIMSASPGEKVTLTCSASSSVTSNYLYWYQQKPGSSPKLWIYSTSNLASGVPARFSGSGSGTSYSLTISSMEAEDAASYFCHQWSSYPPTFGSGTKLEIKR
notes: Mouse P3D12 variable regions with human constant regions
In the case of B17, the Kd (rat cMET-Fc) is reported as 30 nM and the Kd [3] is reported as 0.7 nM.

B18: hD12-II (Antibody hD12 attached to the payload of chemical formula II, stochastic conjugation) (antibody, human IgG2, kappa)
heavy: QVQLVQSGAEVKKPGASVKVSCKASGYTFTSYWMHWVKQAPGQGLDWIGYIKPSTDNTEYNQKFKDKATLTADKSTSTAYMELSSLRSEDTAVYYCARSYGNYPLMDYWGQGTTVTVSSASTKGPSVFPLAPCSRSTSESTAALGCLVKDYFPEPVTVSWNSGALTSGVHTFPAVLQSSGLYSLSSVVTVPSSNFGTQTYTCNVDHKPSNTKVDKTVERKCCVECPPCPAPPVAGPSVFLFPPKPKDTLMISRTPEVTCVVVDVSHEDPEVQFNWYVDGVEVHNAKTKPREEQFNSTFRVVSVLTVVHQDWLNGKEYKCKVSNKGLPAPIEKTISKTKGQPREPQVYTLPPSREEMTKNQVSLTCLVKGFYPSDIAVEWESNGQPENNYKTTPPMLDSDGSFFLYSKLTVDKSRWQQGNVFSCSVMHEALHNHYTQKSLSLSPGK
light: QIVLTQSPAILSLSPGERATLSCSASSSVTSNYLYWYQQKPGSSPKLLIYSTSNLASGVPARFSGSGSGTSYTLTISSLEAEDAASYFCHQWSSYPPTFGSGTKLEIKRTVAAPSVFIFPPSDEQLKSGTASVVCLLNNFYPREAKVQWKVDNALQSGNSQESVTEQDSKDSTYSLSSTLTLSKADYEKHKVYACEVTHQGLSSPVTKSFNRGEC
modifications: payload of chemical formula II on one or more cysteine residues of the antibody at random positions (chain not stated); payload of chemical formula II (pyrrolobenzodiazepine toxin + linking group, maleimide) on one or more cysteine residues of the antibody at random positions
notes: also called hD12-vc-II
B18: binds [4].

B19: hD12-IV (Antibody hD12 attached to the payload of chemical formula IV, stochastic conjugation) (antibody, human IgG2, kappa)
heavy: B18 heavy
light: B18 light
modifications: payload of chemical formula IV on one or more cysteine residues of the antibody at random positions (chain not stated); payload of chemical formula IV (pyrrolobenzodiazepine toxin + linking group, maleimide) on one or more cysteine residues of the antibody at random positions
notes: Antibody-drug conjugate; also called hD12-vc-IV
B19: binds [4].

B20: hD12-VI (Antibody hD12 attached to the payload of chemical formula VI, stochastic conjugation) (antibody, human IgG2, kappa)
heavy: B18 heavy
light: B18 light
modifications: payload of chemical formula VI on one or more cysteine residues of the antibody at random positions (chain not stated); payload of chemical formula VI (pyrrolobenzodiazepine toxin + linking group, maleimide) on one or more cysteine residues of the antibody at random positions
notes: Antibody-drug conjugate; also called hD12-vc-VI
B20: binds [4].

B21: hD12-VII (Antibody hD12 attached to the payload of chemical formula VII, stochastic conjugation) (antibody, human IgG2, kappa)
heavy: B18 heavy
light: B18 light
modifications: payload of chemical formula VII on one or more cysteine residues of the antibody at random positions (chain not stated); payload of chemical formula VII (pyrrolobenzodiazepine toxin + linking group, maleimide) on one or more cysteine residues of the antibody at random positions
notes: Antibody-drug conjugate; also called hD12-vc-VII
B21: binds [4].

B22: hD12-XI (Antibody hD12 attached to the payload of chemical formula XI, stochastic conjugation) (antibody, human IgG2, kappa)
heavy: B18 heavy
light: B18 light
modifications: payload of chemical formula XI on one or more cysteine residues of the antibody at random positions (chain not stated); payload of chemical formula XI (pyrrolobenzodiazepine toxin + linking group, maleimide) on one or more cysteine residues of the antibody at random positions
notes: Antibody-drug conjugate; also called hD12-vc-XI
B22: binds [4].
